Measured values from article PMC10369947.
Residue numbers refer to the chain shown, from its start. Where two headings read alike, the source gives them in different places.

How the values were obtained:
Assay in all cases: smFRET
GAF-DBD (GAF-ZnF, Cy3) [1] = biological target: T1, GAF-DBD (GAF-ZnF, Cy3) (Drosophila melanogaster, UniProt Q08605)
T1 sequence: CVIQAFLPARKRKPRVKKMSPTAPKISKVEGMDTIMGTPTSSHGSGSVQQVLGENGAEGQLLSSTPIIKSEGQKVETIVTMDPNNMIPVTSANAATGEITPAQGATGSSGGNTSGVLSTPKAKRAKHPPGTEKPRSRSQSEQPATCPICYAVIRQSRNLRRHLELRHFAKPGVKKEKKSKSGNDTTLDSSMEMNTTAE

GAF-DBD (GAF-ZnF, Cy3) [2] = biological target: T1, GAF-DBD (GAF-ZnF, Cy3); remark: listed apart in the source
GAF-DBD (GAF-ZnF, Cy3) [3] = biological target: T1, GAF-DBD (GAF-ZnF, Cy3); remark: listed apart in the source
GAF-DBD (GAF-ZnF, Cy3) [4] = biological target: T1, GAF-DBD (GAF-ZnF, Cy3); remark: listed apart in the source

B1: hsp70 tandem Cy5/Cy7 DNA (187 bp) (dsDNA)
DNA 1: TCATTTGTTTGGCAGAAAGAAAACTCTCAAAATTTCGTTGGCCGTTATAGCATATTCGTTTTGTGAGAGAGGGAGAGAGTACTATTGTTAACCCACAAGGTCGCACAGTAAACGGCACACTGTACGTGTTGCTTCGAGAGAGCGCGCCACCTGGTGTCGCGAAAAGAGCGCCGGAGTATAAATAGAG
DNA 2: CTCTATTTATACTCCGGCGCTCTTTTCGCGACACCAGGTGGCGCGCTCTCTCGAAGCAACACGTACAGTGTGCCGTTTACTGTGCGACCTTGTGGGTTAACAATAGTACTCTCTCCCTCTCTCACAAAACGAATATGCTATAACGGCCAACGAAATTTTGAGAGTTTTCTTTCTGCCAAACAAATGA
modifications: amino-C6-T coupled dyes
binding result (GAF-DBD (GAF-ZnF, Cy3) [1]): binds

B2: hsp70 Site 2 Only Cy5/Cy7 DNA (dsDNA)
DNA 1: B1 DNA 1 with G65C, A66C, G67A, A68G, G69C, G71C, G72T, A74T, G75A, G77T
DNA 2: B1 DNA 2 with C111A, C113T, T114A, C116A, C117G, C119G, T120C, C121T, T122G, C123G
modifications: amino-C6-T coupled dyes
binding result (GAF-DBD (GAF-ZnF, Cy3) [2]): binds

B3: hsp70 flipped Cy5/Cy7 DNA (187 bp) (dsDNA)
DNA 1: TCATTTGTTTGGCAGAAAGAAAACTCTCAAAATTTCGTTGGCCGTTATAGCATATTCGTTTTGTGACTCTCCCTCTCTGTACTATTGTTAACCCACAAGGTCGCACAGTAAACGGCACACTGTACGTGTTGCTTCGAGAGAGCGCGCCACCTGGTGTCGCGAAAAGAGCGCCGGAGTATAAATAGAG
DNA 2: CTCTATTTATACTCCGGCGCTCTTTTCGCGACACCAGGTGGCGCGCTCTCTCGAAGCAACACGTACAGTGTGCCGTTTACTGTGCGACCTTGTGGGTTAACAATAGTACAGAGAGGGAGAGTCACAAAACGAATATGCTATAACGGCCAACGAAATTTTGAGAGTTTTCTTTCTGCCAAACAAATGA
modifications: amino-C6-T coupled dyes
binding result (GAF-DBD (GAF-ZnF, Cy3) [3]): binds

B4: Cognate-Motif Cy5-DNA (90 bp) (dsDNA)
DNA 1: GTTTTGTGAGTACGCGCTGTTGTACTATTGTTAACCCACAAGGTCGCACAGTAAACGGCACACTGTACGTGTTGCTTCGAGAGAGCGCGC
DNA 2: GCGCGCTCTCTCGAAGCAACACGTACAGTGTGCCGTTTACTGTGCGACCTTGTGGGTTAACAATAGTACAACAGCGCGTACTCACAAAAC
modifications: internal backbone Cy5 in strand 2
binding result (GAF-DBD (GAF-ZnF, Cy3) [4]): binds
